# T1: POLA1 (human Pol α catalytic subunit) (human, UniProt P09884 1-1462)
# T1 construct: POLA1, human; modelled residues 1279-1445 and 1448-1458 (CTD); stood in the assay as a subunit of m18; also called POLA1CTD; POLA1_(exo-cat)
# T1 sequence: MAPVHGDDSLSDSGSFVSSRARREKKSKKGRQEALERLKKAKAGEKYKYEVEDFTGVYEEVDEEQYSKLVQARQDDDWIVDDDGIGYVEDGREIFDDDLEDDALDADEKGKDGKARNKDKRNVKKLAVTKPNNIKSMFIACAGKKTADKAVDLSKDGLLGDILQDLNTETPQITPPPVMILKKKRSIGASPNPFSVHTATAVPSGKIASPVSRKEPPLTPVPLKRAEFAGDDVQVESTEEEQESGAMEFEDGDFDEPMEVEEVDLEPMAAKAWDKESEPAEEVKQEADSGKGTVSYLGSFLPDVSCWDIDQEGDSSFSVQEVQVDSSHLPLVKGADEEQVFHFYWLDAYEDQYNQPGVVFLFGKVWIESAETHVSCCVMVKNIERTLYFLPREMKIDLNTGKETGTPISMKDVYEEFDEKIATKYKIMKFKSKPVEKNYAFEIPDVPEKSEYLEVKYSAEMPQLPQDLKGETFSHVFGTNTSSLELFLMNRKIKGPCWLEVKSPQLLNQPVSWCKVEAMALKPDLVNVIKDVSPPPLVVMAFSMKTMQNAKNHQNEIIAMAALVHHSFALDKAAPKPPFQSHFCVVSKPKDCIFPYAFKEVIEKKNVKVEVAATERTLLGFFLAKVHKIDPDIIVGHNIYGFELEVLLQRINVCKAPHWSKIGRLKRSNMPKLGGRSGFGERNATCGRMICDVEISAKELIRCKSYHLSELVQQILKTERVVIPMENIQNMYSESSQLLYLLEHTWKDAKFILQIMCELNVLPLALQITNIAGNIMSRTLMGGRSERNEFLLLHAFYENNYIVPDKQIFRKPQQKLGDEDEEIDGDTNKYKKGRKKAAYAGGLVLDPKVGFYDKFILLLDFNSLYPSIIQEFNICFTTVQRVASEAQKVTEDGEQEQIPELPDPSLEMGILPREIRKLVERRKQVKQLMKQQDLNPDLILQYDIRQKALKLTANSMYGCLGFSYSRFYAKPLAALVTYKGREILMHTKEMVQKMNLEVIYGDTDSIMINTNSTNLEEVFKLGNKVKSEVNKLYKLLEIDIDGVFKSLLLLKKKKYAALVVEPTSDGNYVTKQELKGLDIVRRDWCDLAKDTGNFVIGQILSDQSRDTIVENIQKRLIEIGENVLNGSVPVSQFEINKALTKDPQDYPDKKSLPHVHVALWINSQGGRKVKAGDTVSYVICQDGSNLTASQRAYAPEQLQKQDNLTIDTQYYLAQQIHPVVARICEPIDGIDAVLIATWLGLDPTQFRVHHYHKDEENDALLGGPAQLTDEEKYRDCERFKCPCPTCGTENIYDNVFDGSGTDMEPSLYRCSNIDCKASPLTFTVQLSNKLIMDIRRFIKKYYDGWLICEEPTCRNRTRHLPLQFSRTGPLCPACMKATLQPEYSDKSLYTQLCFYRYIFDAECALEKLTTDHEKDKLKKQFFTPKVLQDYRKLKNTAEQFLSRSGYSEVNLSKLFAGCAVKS
# Legend:
# Assay in all cases: cryo-EM structure; human replisome: 150 nM CMG on fork DNA (60 nt or 15 nt 5′ flap) with 1.5-fold molar excess of AND-1, TIMELESS-TIPIN, CLASPIN and Pol α-primase; 25 mM HEPES-NaOH pH 7.6, 150 mM NaOAc, 0.5 mM TCEP, 500 μM AMP-PNP, 10 mM Mg(OAc)2, on ice; 10-30% glycerol gradient with glutaraldehyde and BS3 cross-linkers
# [1] = molecular target: T2, human CMG (CDC45-MCM-GINS) replicative helicase (human, UniProt O75419 1-566; P49736 1-904; P25205 1-808; P33991 1-863; P33992 1-734; Q14566 …); settings: both partners purified
# T2 construct: CDC45, human; MCM2, human; MCM3, human; MCM4, human; MCM5, human; MCM6, human; MCM7, human; PSF1, subunit of GINS, human; PSF2, subunit of GINS, human; PSF3, subunit of GINS, human; SLD5, subunit of GINS, human; the subunits are named in the methods for the MCM3-4A form, which was made as the wild type; copies: + + + + + + + + + +
# [2] = molecular target: the molecule itself
# [3] = molecular target: T1, POLA1 (human Pol α catalytic subunit); settings: both partners purified
binder,measurement,setting,value
"AND-1 (human) (natural protein, AND-1, human (Ctf4 in budding yeast)) MPATRKPMRYGHTEGHTEVCFDDSGSFIVTCGSDGDVRIWEDLDDDDPKFINVGEKAYSCALKSGKLVTAVSNNTIQVHTFPEGVPDGILTRFTTNANHVVFNGDGTKIAAGSSDFLVKIVDVMDSSQQKTFRGHDAPVLSLSFDPKDIFLASASCDGSVRVWQISDQTCAISWPLLQKCNDVINAKSICRLAWQPKSGKLLAIPVEKSVKLYRRESWSHQFDLSDNFISQTLNIVTWSPCGQYLAAGSINGLIIVWNVETKDCMERVKHEKGYAICGLAWHPTCGRISYTDAEGNLGLLENVCDPSGKTSSSKVSSRVEKDYNDLFDGDDMSNAGDFLNDNAVEIPSFSKGIINDDEDDEDLMMASGRPRQRSHILEDDENSVDISMLKTGSSLLKEEEEDGQEGSIHNLPLVTSQRPFYDGPMPTPRQKPFQSGSTPLHLTHRFMVWNSIGIIRCYNDEQDNAIDVEFHDTSIHHATHLSNTLNYTIADLSHEAILLACESTDELASKLHCLHFSSWDSSKEWIIDLPQNEDIEAICLGQGWAAAATSALLLRLFTIGGVQKEVFSLAGPVVSMAGHGEQLFIVYHRGTGFDGDQCLGVQLLELGKKKKQILHGDPLPLTRKSYLAWIGFSAEGTPCYVDSEGIVRMLNRGLGNTWTPICNTREHCKGKSDHYWVVGIHENPQQLRCIPCKGSRFPPTLPRPAVAILSFKLPYCQIATEKGQMEEQFWRSVIFHNHLDYLAKNGYEYEESTKNQATKEQQELLMKMLALSCKLEREFRCVELADLMTQNAVNLAIKYASRSRKLILAQKLSELAVEKAAELTATQVEEEEEEEDFRKKLNAGYSNTATEWSQPRFRNQVEEDAEDSGEADDEEKPEIHKPGQNSFSKSTNSSDVSAKSGAVTFSSQGRVNPFKVSASSKEPAMSMNSARSTNILDNMGKSSKKSTALSRTTNNEKSPIIKPLIPKPKPKQASAASYFQKRNSQTNKTEEVKEENLKNVLSETPAICPPQNTENQRPKTGFQMWLEENRSNILSDNPDFSDEADIIKEGMIRFRVLSTEERKVWANKAKGETASEGTEAKKRKRVVDESDETENQEEKAKENLNLSKKQKPLDFSTNQKLSAFAFKQE",binding result,[1],binds
same,stoichiometry N,[2],3
same,binding result,[3],binds
